2 molecules from paper PMC2759774 (Molecular microbiology, 2009) can be followed below.

Test [1] concerns the target T1, MinC^C/MinD complex (MalE-MinC^C with MinD on phospholipid vesicles) (E. coli, UniProt P18196 116-231; P0AEZ3 1-270).
T1 sequence (looked up) 1: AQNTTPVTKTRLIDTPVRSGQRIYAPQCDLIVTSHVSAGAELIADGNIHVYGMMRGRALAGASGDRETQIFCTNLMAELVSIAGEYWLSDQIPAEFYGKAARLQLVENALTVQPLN
T1 sequence (looked up) 2: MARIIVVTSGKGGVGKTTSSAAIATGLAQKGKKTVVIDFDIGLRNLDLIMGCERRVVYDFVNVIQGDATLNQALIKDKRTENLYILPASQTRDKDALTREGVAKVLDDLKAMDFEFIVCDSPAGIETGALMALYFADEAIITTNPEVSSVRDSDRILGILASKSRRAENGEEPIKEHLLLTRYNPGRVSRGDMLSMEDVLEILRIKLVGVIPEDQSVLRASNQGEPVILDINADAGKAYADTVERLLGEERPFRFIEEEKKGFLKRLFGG
Description: co-sedimentation.

The target in a further test is T2, MinD (E. coli, UniProt P0AEZ3 1-270).
T2 sequence (looked up): T1 sequence (looked up) 2
Put plainly: co-sedimentation.

B1: WT FtsZ (natural protein, E. coli, UniProt P0A9A6 1-383, looked up)
chain: MFEPMELTNDAVIKVIGVGGGGGNAVEHMVRERIEGVEFFAVNTDAQALRKTAVGQTIQIGSGITKGLGAGANPEVGRNAADEDRDALRAALEGADMVFIAAGMGGGTGTGAAPVVAEVAKDLGILTVAVVTKPFNFEGKKRMAFAEQGITELSKHVDSLITIPNDKLLKVLGRGISLLDAFGAANDVLKGAVQGIAELITRPGLMNVDFADVRTVMSEMGYAMMGSGVASGEDRAEEAAEMAISSPLLEDIDLSGARGVLVNITAGFDLRLDEFETVGNTIRAFASDNATVVIGTSLDPDMNDELRVTVVATGIGMDKRPEITLVTNKQVQQPVMDRYQQHGMAPLTQEQKPVAKVVNDNAPQTAKEPDYLDIPAFLRKQAD
As to B1, the binding result in test [1] was “binds”.

B2: MalE-MinC^C (domain or fragment, E. coli, UniProt P18196 116-231, looked up)
chain: T1 sequence (looked up) 1
B2: the binding result with MinD is “binds”.
